Data on 8 molecules can be found in patent publication US11814663B2, “Microorganisms with improved 1,3-propanediol and butyric acid production” (METABOLIC EXPLORER, priority 2018, dated 2023).

Numbering of substitutions follows the chain as printed. In names and notes the source's numbering stands.

Holding throughout (format): biochemical, Clostridium acetobutylicum ATCC824
Series [1] addresses T1, Clostridium acetobutylicum glycerol kinase GlpK wt (glpK, CA_C1321, Uniprot Q97JG4), SEQ ID NO: 1 (Clostridium acetobutylicum, UniProt Q97JG4).
T1 construct: GlpK wt; Q97JG4; made in house; host or cells: E. coli BL21(DE3) star
T1 sequence (Q97JG4 1-498): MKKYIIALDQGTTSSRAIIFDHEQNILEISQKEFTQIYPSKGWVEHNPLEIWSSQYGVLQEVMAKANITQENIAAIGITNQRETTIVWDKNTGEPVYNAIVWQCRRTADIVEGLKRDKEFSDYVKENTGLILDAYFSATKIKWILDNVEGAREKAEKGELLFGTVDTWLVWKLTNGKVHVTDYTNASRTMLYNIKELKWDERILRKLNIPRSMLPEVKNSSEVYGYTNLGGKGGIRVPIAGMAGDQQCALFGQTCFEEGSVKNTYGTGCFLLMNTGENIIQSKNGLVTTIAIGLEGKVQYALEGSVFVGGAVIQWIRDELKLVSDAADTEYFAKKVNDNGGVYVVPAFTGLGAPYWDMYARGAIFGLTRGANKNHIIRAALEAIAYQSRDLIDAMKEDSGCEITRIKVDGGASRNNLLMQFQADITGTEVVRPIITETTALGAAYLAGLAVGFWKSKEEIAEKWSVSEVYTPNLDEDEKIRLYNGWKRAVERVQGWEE
Description: Glycerol kinase activity towards glycerol (ADP appearance coupled to NADH oxidation), wild type. The conditions noted are these: pH 9, 30° C., 2 mM ATP, 0.01-50 mM glycerol. The text has this: (§1) Three different point mutations were identified in glpK gene in the clone PD0557Vc05 leading to the mutant protein GlpK* with H22Y, A347T and V466M (table 2 above). In order to better characterize the effect of the mutations, we tested them individually or in combination. Therefore, the alleles coding for the mutated glycerol kinase were cloned into the expression plasmid pPAL7 (Biorad®) and the plasmids obtained were transformed into E. coli strain BL21(DE3) star to purify each mutated protein and perform biochemical experiments. […]
(§2) The proteins were purified from the crude cell-extract by affinity on a Profinity column (BIORAD, Bio-Scale Mini Profinity exact cartridge 5 ml) according to the protocol recommended by the manufacturer. […] Protein concentration was measured using the Bradford protein assay.
(§3) Determination of kinetic parameters of GlpK wild type and mutants Glycerol kinase activity (GLPK) that catalyses the following reaction: Glycerol+ATP=>Glycerol-3-Phosphate+ADP, was determined by measuring the ADP appearance by enzymatic coupling to NADH oxidation. […] The oxidation of NADH was monitored at 30° C. by absorbance at 340 nm on a spectrophotometer (λ340=6290 M^−1 cm^−1).
(§4) One unit of enzyme activity was defined as the amount of enzyme catalyzing the decrease of 1 μmol of NADH per min. Kinetic parameters were determined with Sigmaplot by fitting to the Michaelis-Menten equation.

Series [2] has as its target T2, Clostridium acetobutylicum glycerol kinase GlpK variant GlpK*(H22Y/A347T/V466M), SEQ ID NO: 13 (Clostridium acetobutylicum, UniProt Q97JG4, A347T/H22Y/V466M).
T2 construct: made in house; host or cells: E. coli BL21(DE3) star
T2 sequence (Q97JG4 1-498 H22Y/A347T/V466M): T1 sequence (Q97JG4 1-498) with H22Y, A347T, V466M
Description: Glycerol kinase activity towards glycerol (ADP appearance coupled to NADH oxidation), H22Y/A347T/V466M. The conditions noted are these: pH 9, 30° C., 2 mM ATP, 0.01-50 mM glycerol.
From the text: as §1, §2, §3, §4

Substrate in series [3]: OCC(O)CO
The series is described as follows: Glycerol kinase activity towards glycerol (ADP appearance coupled to NADH oxidation), wild type. The conditions noted are these: other: GlpK wt, pH 9, 30° C., 2 mM ATP, 0.01-50 mM glycerol.
From the text: (§5) Three different point mutations were identified in glpK gene in the clone PD0557Vc05 leading to the mutant protein GlpK* with H22Y, A347T and V466M (table 2 above). In order to better characterize the effect of the mutations, we tested them individually or in combination. Therefore, the alleles coding for the mutated glycerol kinase were cloned into the expression plasmid pPAL7 (Biorad®) and the plasmids obtained were transformed into E. coli strain BL21(DE3) star to purify each mutated protein and perform biochemical experiments.
(§6) Cultures of the seven strains 1 to 7 for the overproduction of the proteins were realized in a 2 L Erlenmeyer flask, using LB broth (Bertani, 1951) that was supplemented with 5 g/L glucose and 100 mg/L of ampicillin. An overnight culture was used to inoculate a 500 mL culture to an OD600 nm of about 0.15. The culture was first kept on a shaker at 37° C. and 200 rpm until OD600 nm was about 0.5 and then the culture was moved on a second shaker at 25° C. and 200 rpm until OD600 nm was 0.6-0.8 (about one hour), before induction with 500 μM IPTG. The culture was kept at 25° C. and 200 rpm until OD600 nm was around 4, and then it was stopped. Cells were centrifuged at 7000 rpm, 5 minutes at 4° C., and then stored at −20° C. This protocol was the same for strains 1 to 7.
(§7) For each strain, about 250 mg of E. coli biomass was suspended in 40 ml of 100 mM potassium phosphate pH 7.6, and a protease inhibitor cocktail. The cells suspension (15 ml per conical tube) was sonicated on ice (Bandelin sonoplus, 70 w) in a 50 ml conical tube during 8 cycles of 30 sec with 30 sec intervals. After sonication, cells were incubated for 30 min at room temperature with 5 mM MgCl2 and 1 UI/ml of DNaseI. Cells debris were removed by centrifugation at 12000 g for 30 min at 4° C.
(§8) The proteins were purified from the crude cell-extract by affinity on a Profinity column (BIORAD, Bio-Scale Mini Profinity exact cartridge 5 ml) according to the protocol recommended by the manufacturer. The crude extract was loaded on a 5 ml Profinity exact cartridge equilibrated with 100 mM potassium phosphate pH 7.6. […] Protein concentration was measured using the Bradford protein assay.
as §3, §4

Substrate in series [4]: OCC(O)CO
The series is described as follows: Glycerol kinase activity towards glycerol (ADP appearance coupled to NADH oxidation), A347T/V466M. The conditions noted are these: other: GlpK* (A347T/V466M), pH 9, 30° C., 2 mM ATP, 0.01-50 mM glycerol.
From the text: as §5, §6, §7, §8, §3, §4

Substrate in series [5]: OCC(O)CO
The series is described as follows: Glycerol kinase activity towards glycerol (ADP appearance coupled to NADH oxidation), H22Y/A347T. The conditions noted are these: other: GlpK* (H22Y/A347T), pH 9, 30° C., 2 mM ATP, 0.01-50 mM glycerol.
From the text: as §5, §6, §7, §8, §3, §4

Substrate in series [6]: OCC(O)CO
Description: Glycerol kinase activity towards glycerol (ADP appearance coupled to NADH oxidation), V466M. The conditions noted are these: other: GlpK* V466M, pH 9, 30° C., 2 mM ATP, 0.01-50 mM glycerol.
From the text: as §5, §6, §7, §8, §3, §4

Substrate in series [7]: OCC(O)CO
The series is described as follows: Glycerol kinase activity towards glycerol (ADP appearance coupled to NADH oxidation), H22Y/A347T/V466M. The conditions noted are these: other: GlpK* (H22Y/A347T/V466M), pH 9, 30° C., 2 mM ATP, 0.01-50 mM glycerol.
From the text: as §5, §6, §7, §8, §3, §4

Substrate in series [8]: OCC(O)CO
Description: Glycerol kinase activity towards glycerol (ADP appearance coupled to NADH oxidation), H22Y. The conditions noted are these: other: GlpK* H22Y, pH 9, 30° C., 2 mM ATP, 0.01-50 mM glycerol.
From the text: as §5, §6, §7, §8, §3, §4

Substrate in series [9]: OCC(O)CO
The series is described as follows: Glycerol kinase activity towards glycerol (ADP appearance coupled to NADH oxidation), A347T. The conditions noted are these: other: GlpK* A347T, pH 9, 30° C., 2 mM ATP, 0.01-50 mM glycerol.
From the text: as §5, §6, §7, §8, §3, §4

`OCC(O)CO` [glycerol]: the Kcat/km in [1] was 1.52e+06 M⁻¹ s⁻¹; in series [2], 33900 M⁻¹ s⁻¹.

B1: Clostridium acetobutylicum glycerol kinase GlpK wt (glpK, CA_C1321, Uniprot Q97JG4), SEQ ID NO: 1 (Clostridium acetobutylicum ATCC 824) (protein)
chain: T1 sequence (Q97JG4 1-498)
notes: GlpK wt; Q97JG4; made in house; host or cells: E. coli BL21(DE3) star
On to B1, for which, in series [3], the Km was found to be 54 ± 1 µM, the Vmax is given as 87734 ± 499 nmol/min/mg, the kcat is 82.22 ± 0.467 s⁻¹ and the kcat/Km turned out to be 1.52e+06 ± 53000 M⁻¹ s⁻¹.

B2: Clostridium acetobutylicum glycerol kinase GlpK variant GlpK*(A347T/V466M), SEQ ID NO: 11 (Clostridium acetobutylicum ATCC 824; A347T/V466M) (protein)
chain: T1 sequence (Q97JG4 1-498) with A347T, V466M
notes: GlpK*(A347T/); made in house; host or cells: E. coli BL21(DE3) star
On to B2, for which, in series [4], the Michaelis constant (Km) is 480 ± 48 µM, the Vmax is reported as 6267 ± 175 nmol/min/mg, the kcat amounted to 5.873 ± 0.163 s⁻¹ and the kcat/Km was determined as 12310 ± 1600 M⁻¹ s⁻¹.

B3: Clostridium acetobutylicum glycerol kinase GlpK variant GlpK*(H22Y/A347T), SEQ ID NO: 9 (Clostridium acetobutylicum ATCC 824; A347T/H22Y) (protein)
chain: T1 sequence (Q97JG4 1-498) with H22Y, A347T
notes: GlpK*(H22Y/); made in house; host or cells: E. coli BL21(DE3) star
On to B3, for which, in series [5], the Km worked out at 620 ± 50 µM, the maximal velocity (Vmax) is on record as 9784 ± 195 nmol/min/mg, the turnover number (kcat) is 9.08 ± 0.183 s⁻¹ and the kcat/Km was found to be 14700 ± 1500 M⁻¹ s⁻¹.

B4: Clostridium acetobutylicum glycerol kinase GlpK variant GlpK*(V466M), SEQ ID NO: 7 (Clostridium acetobutylicum ATCC 824; V466M) (protein)
chain: T1 sequence (Q97JG4 1-498) with V466M
notes: GlpK*(V466M); made in house; host or cells: E. coli BL21(DE3) star
For the molecule B4, in series [6], the Km turned out to be 58 ± 3 µM, the Vmax is given as 60399 ± 537 nmol/min/mg, the catalytic constant (kcat) worked out at 56.6 ± 0.5 s⁻¹ and the kcat/Km was determined as 973000 ± 52000 M⁻¹ s⁻¹.

B5: Clostridium acetobutylicum glycerol kinase GlpK variant GlpK*(H22Y/A347T/V466M), SEQ ID NO: 13 (Clostridium acetobutylicum ATCC 824; A347T/H22Y/V466M) (protein)
chain: T1 sequence (Q97JG4 1-498) with H22Y, A347T, V466M
notes: as for B3
Consider B5, for which, in series [7], the Km is 39 ± 2 µM, the Vmax is 1404 ± 13 nmol/min/mg, the kcat amounted to 1.32 ± 0.012 s⁻¹ and the kcat/Km came out at 33900 ± 2300 M⁻¹ s⁻¹.

B6: Clostridium acetobutylicum glycerol kinase GlpK variant GlpK*(H22Y), SEQ ID NO: 5 (Clostridium acetobutylicum ATCC 824; H22Y) (protein)
chain: T1 sequence (Q97JG4 1-498) with H22Y
notes: GlpK*(H22Y); made in house; host or cells: E. coli BL21(DE3) star
In the case of B6, in series [8], the Km amounted to 70 ± 4 µM, the Vmax is recorded as 91725 ± 1186 nmol/min/mg, the kcat worked out at 85.97 ± 1.12 s⁻¹ and the kcat/Km is 1.229e+06 ± 93000 M⁻¹ s⁻¹.

B7: Clostridium acetobutylicum glycerol kinase GlpK variant GlpK*(A347T), SEQ ID NO: 3 (Clostridium acetobutylicum ATCC 824; A347T) (protein)
chain: T1 sequence (Q97JG4 1-498) with A347T
notes: GlpK*(A347T); made in house; host or cells: E. coli BL21(DE3) star
For the molecule B7, in [9], the Km is 260 ± 31 µM, the maximum rate (Vmax) amounted to 6977 ± 155 nmol/min/mg, the kcat came out at 6.538 ± 0.145 s⁻¹ and the kcat/Km came to 24900 ± 3500 M⁻¹ s⁻¹.

Broadly, the Km is the concentration of substrate that gives half-maximal velocity. By Vmax is commonly meant the rate approached at saturating substrate. Broadly, the kcat is the number of substrate molecules converted per active site and unit of time at saturation. In general, kcat/Km refers to the turnover number divided by the Michaelis constant.
